Measurements from patent US20200164038A1, “MODIFIED NUCLEOSIDE, NUCLEOTIDE, AND NUCLEIC ACID COMPOSITIONS” (ModernaTX, Inc., priority 2011, published 2020).
Where two headings read alike, the source gives them in different places.

Key:
[1] = Time course in vivo study of LNP, serum G-CSF or EPO by ELISA; conditions: mice IV
Description: (§1) Formulations, listed in Table 31, were characterized by particle size, zeta potential, and encapsulation.
LNP formulations, shown in Table 31 (above), were administered to mice (n=5) intravenously (IV) at a single modified mRNA dose of 0.5, 0.05 or 0.005 mg/kg. The mice were bled at 8 hours, 24 hours, 72 hours and 6 days after they were administered with G-CSF or EPO modified mRNA formulations to determine protein expression using ELISA.

[2] = test system: Neutrophil and reticulocyte count; test: Non-human primate hematology: neutrophil and reticulocyte count, hemoglobin, hematocrit, red blood cells; assay type: in vivo, cynomolgus monkey; conditions: for Female NHP Neutrophils: Table 39
Description: LNP formulations, shown in Table 31 (above), were administered to non-human primates (NHP) (cynomolgus monkey) (n=2) as intravenous injection (IV). The NHP were administered a single modified mRNA IV dose of 0.5 mg/kg, 0.05 mg/kg or 0.005 mg/kg of G-CSF or EPO in a dose volume of 0.5 mL/kg. The NHPs were bled before dosing with the modified mRNA LNP formulations to determine protein expression in the serum and a baseline complete blood count. After administration with the G-CSF modified mRNA formulation the NHP were bled at 8, 24, 48 and 72 hours to determined protein expression. After administration with the EPO modified mRNA formulation the NHP were bled at 8, 24, 48, 72 hours and 7 days to determined protein expression.
Samples collected from the NHPs after they were administered with G-CSF or EPO modified mRNA formulations were analyzed by ELISA to determine protein expression. Neutrophil and reticulocyte count was also determined pre-dose, 24 hours, 3 days, 7 days, 14 days and 18 days after administration of the modified G-CSF or EPO formulation.

[3] = Human G-CSF modified RNA lipoplex I.M., S.C., I.V., serum human G-CSF ELISA 6 hours; assay type: in vivo, C57/BL6 mice; conditions: lipoplexed 30% RNAIMAX
Description: 6 hours after administration of a formulation, serum was collected from each mouse to measure the amount of human G-CSF protein in the mouse serum by human G-CSF ELISA and the results are shown in Table 54.

[4] = LNP in vivo study IV, IM, SC, serum G-CSF or EPO by ELISA; conditions: rats, 0.05 mg/kg
Description: as §1
LNP formulations, shown in Table 31 (above), were administered to rats (n=5) intravenously (IV), intramuscularly (IM) or subcutaneously (SC) at a single modified mRNA dose of 0.05 mg/kg. A control group of rats (n=4) was untreated. The rats were bled at 2 hours, 8 hours, 24 hours, 48 hours and 96 hours and after they were administered with G-CSF or EPO modified mRNA formulations to determine protein expression using ELISA. The rats administered EPO modified mRNA intravenously were also bled at 7 days.

[5] = for Serum Concentration 8-12 hours after administration: G-CSF; for G-CSF Protein Expression, Conc: mice IV, serum 8 hrs
[6] = Non-human primate serum chemistry: alanine transaminase (ALT), aspartate transaminase (AST); assay type: in vivo, cynomolgus monkey; conditions: for Aspartate Transaminase (AST): Female NHP; for Alanine Transaminase (ALT): Male NHP
[7] = Female NHP, 0.5 mg/kg, 24 hours

B1: G-CSF: human G-CSF mRNA, SEQ ID NO: 6, polyA about 160 nt, Cap1, fully modified with 5-methylcytosine and pseudouridine (nucleic acid, listed as Homo sapiens)
chain: GGGAAAUAAGAGAGAAAAGAAGAGUAAGAAGAAAUAUAAGAGCCACCAUGGCCGGUCCCGCGACCCAAAGCCCCAUGAAACUUAUGGCCCUGCAGUUGCUGCUUUGGCACUCGGCCCUCUGGACAGUCCAAGAAGCGACUCCUCUCGGACCUGCCUCAUCGUUGCCGCAGUCAUUCCUUUUGAAGUGUCUGGAGCAGGUGCGAAAGAUUCAGGGCGAUGGAGCCGCACUCCAAGAGAAGCUCUGCGCGACAUACAAACUUUGCCAUCCCGAGGAGCUCGUACUGCUCGGGCACAGCUUGGGGAUUCCCUGGGCUCCUCUCUCGUCCUGUCCGUCGCAGGCUUUGCAGUUGGCAGGGUGCCUUUCCCAGCUCCACUCCGGUUUGUUCUUGUAUCAGGGACUGCUGCAAGCCCUUGAGGGAAUCUCGCCAGAAUUGGGCCCGACGCUGGACACGUUGCAGCUCGACGUGGCGGAUUUCGCAACAACCAUCUGGCAGCAGAUGGAGGAACUGGGGAUGGCACCCGCGCUGCAGCCCACGCAGGGGGCAAUGCCGGCCUUUGCGUCCGCGUUUCAGCGCAGGGCGGGUGGAGUCCUCGUAGCGAGCCACCUUCAAUCAUUUUUGGAAGUCUCGUACCGGGUGCUGAGACAUCUUGCGCAGCCGUGAAGCGCUGCCUUCUGCGGGGCUUGCCUUCUGGCCAUGCCCUUCUUCUCUCCCUUGCACCUGUACCUCUUGGUCUUUGAAUAAAGCCUGAGUAGGAAG
modifications: Cap1; polyA; 5-methylcytosine, pseudouridine
[1]; LNP NPA-030-2, 0.005 mg/kg, 8 hours
  G-CSF Serum Concentration: 1,550.6 pg/ml
[1]; LNP NPA-030-2, 0.005 mg/kg, 24 hours
  G-CSF Serum Concentration: 5,068.9 pg/ml
[1]; LNP NPA-030-2, 0.05 mg/kg, 8 hours
  G-CSF Serum Concentration: 462,312.5 pg/ml
[1]; LNP NPA-030-2, 0.05 mg/kg, 24 hours
  G-CSF Serum Concentration: 80,903.8 pg/ml
[1]; LNP NPA-030-2, 0.5 mg/kg, 8 hours
  G-CSF Serum Concentration: >1,250,000 pg/ml
[1]; LNP NPA-030-2, 0.5 mg/kg, 24 hours
  G-CSF Serum Concentration: 495,812.5 pg/ml
[1]; LNP NPA-030-2, 0.5 mg/kg, 72 hours
  G-CSF Serum Concentration: 1,325.6 pg/ml
[1]; LNP, 0.005 mg/kg and 0.05 mg/kg
  time out to which protein expression was detectable: 72 h
[2]; Female NHP, 0.005 mg/kg, 14/18 days
  Hematocrit (HCT): 0.42 L/L
[2]; Female NHP, 0.005 mg/kg, 24 hours
  Hematocrit (HCT): 0.42 L/L
[2]; Female NHP, 0.005 mg/kg, 3 days
  Hematocrit (HCT): 0.41 L/L
[2]; Female NHP, 0.005 mg/kg, 7 days
  Hematocrit (HCT): 0.42 L/L
[2]; Female NHP, 0.005 mg/kg, Pre-dose
  Hematocrit (HCT): 0.42 L/L
[2]; Female NHP, 0.05 mg/kg, 14/18 days
  Hematocrit (HCT): 0.4 L/L
[2]; Female NHP, 0.05 mg/kg, 24 hours
  Hematocrit (HCT): 0.4 L/L
[2]; Female NHP, 0.05 mg/kg, 3 days
  Hematocrit (HCT): 0.39 L/L
[2]; Female NHP, 0.05 mg/kg, 7 days
  Hematocrit (HCT): 0.4 L/L
[2]; Female NHP, 0.05 mg/kg, Pre-dose
  Hematocrit (HCT): 0.44 L/L
[2]; Female NHP, 0.5 mg/kg, 14/18 days
  Hematocrit (HCT): 0.37 L/L
[2]; [7]
  Hematocrit (HCT): 0.38 L/L
  Red Blood Cells (RBC): 4.95 10^12/L
[2]; Female NHP, 0.5 mg/kg, 3 days
  Hematocrit (HCT): 0.38 L/L
[2]; Female NHP, 0.5 mg/kg, 7 days
  Hematocrit (HCT): 0.38 L/L
[2]; Female NHP, 0.5 mg/kg, Pre-dose
  Hematocrit (HCT): 0.43 L/L
[2]; Male NHP, 0.005 mg/kg, 14/18 days
  Hematocrit (HCT): 0.41 L/L
[2]; Male NHP, 0.005 mg/kg, 24 hours
  Hematocrit (HCT): 0.4 L/L
[2]; Male NHP, 0.005 mg/kg, 3 days
  Hematocrit (HCT): 0.4 L/L
[2]; Male NHP, 0.005 mg/kg, 7 days
  Hematocrit (HCT): 0.39 L/L
[2]; Male NHP, 0.005 mg/kg, Pre-dose
  Hematocrit (HCT): 0.42 L/L
[2]; Male NHP, 0.05 mg/kg, 14/18 days
  Hematocrit (HCT): 0.44 L/L
[2]; Male NHP, 0.05 mg/kg, 24 hours
  Hematocrit (HCT): 0.39 L/L
[2]; Male NHP, 0.05 mg/kg, 3 days
  Hematocrit (HCT): 0.41 L/L
[2]; Male NHP, 0.05 mg/kg, 7 days
  Hematocrit (HCT): 0.42 L/L
[2]; Male NHP, 0.05 mg/kg, Pre-dose
  Hematocrit (HCT): 0.44 L/L
[2]; Male NHP, 0.5 mg/kg, 14/18 days
  Hematocrit (HCT): 0.34 L/L
[2]; Male NHP, 0.5 mg/kg, 24 hours
  Hematocrit (HCT): 0.37 L/L
[2]; Male NHP, 0.5 mg/kg, 3 days
  Hematocrit (HCT): 0.39 L/L
  Red Blood Cells (RBC): 1.91 10^12/L
[2]; Male NHP, 0.5 mg/kg, 7 days
  Hematocrit (HCT): 0.39 L/L
[2]; Male NHP, 0.5 mg/kg, Pre-dose
  Hematocrit (HCT): 0.46 L/L
[2]; NHP IV LNP, all G-CSF groups
  neutrophils relative to pre-dose levels: increase in neutrophils
[2]; 0.005 mg/kg IV LNP, 14/18 days
  Female NHP Neutrophils: 0.057 10^12/L
[2]; 0.005 mg/kg IV LNP, 24 hours
  Female NHP Neutrophils: 0.07 10^12/L
[2]; 0.005 mg/kg IV LNP, 3 days
  Female NHP Neutrophils: 0 .054 10^12/L
[2]; 0.005 mg/kg IV LNP, 7 days
  Female NHP Neutrophils: 0.066 10^12/L
[2]; 0.005 mg/kg IV LNP, Pre-dose
  Female NHP Neutrophils: 0.06 10^12/L
[2]; 0.05 mg/kg IV LNP, 14/18 days
  Female NHP Neutrophils: 0.06 10^12/L
[2]; 0.05 mg/kg IV LNP, 24 hours
  Female NHP Neutrophils: 0.046 10^12/L
[2]; 0.05 mg/kg IV LNP, 3 days
  Female NHP Neutrophils: 0.061 10^12/L
[2]; 0.05 mg/kg IV LNP, 7 days
  Female NHP Neutrophils: 0.094 10^12/L
[2]; 0.05 mg/kg IV LNP, Pre-dose
  Female NHP Neutrophils: 0.049 10^12/L
[2]; 0.5 mg/kg IV LNP, 14/18 days
  Female NHP Neutrophils: 0.071 10^12/L
[2]; 0.5 mg/kg IV LNP, 24 hours
  Female NHP Neutrophils: 0.046 10^12/L
[2]; 0.5 mg/kg IV LNP, 3 days
  Female NHP Neutrophils: 0.017 10^12/L
[2]; 0.5 mg/kg IV LNP, 7 days
  Female NHP Neutrophils: 0.021 10^12/L
[2]; 0.5 mg/kg IV LNP, Pre-dose
  Female NHP Neutrophils: 0.055 10^12/L
[3]; 100 μg (Luc-unsp 150 μg), I. V.
  Human G-CSF in Serum: 31.0 pg/mL
[3]; 100 μg, S. C.
  Human G-CSF in Serum: 3.9 pg/mL
[4]; intravenous
  time out to which protein expression was detectable: 7 days
[4]; subcutaneous and intramuscular
  time out to which protein expression was detectable: at least 8 hours
[5]; IM, 100 ug, saline
  Serum Concentration 8-12 hours after administration: ~20 to 80 pg/mL
[5]; IV (LNP), 1 ug
  Serum Concentration 8-12 hours after administration: ~20,000 pg/ml
[5]; IV (LNP), 10 ug
  Serum Concentration 8-12 hours after administration: ~1,000,000 pg/ml
[5]; IV (LNP), 100 ug
  Serum Concentration 8-12 hours after administration: ~5,000,000 pg/ml
[5]; IV (Lipoplex), 100 ug
  Serum Concentration 8-12 hours after administration: ~30 pg/mL
[5]; SC, 100 ug, saline
  Serum Concentration 8-12 hours after administration: ~10 to 40 pg/mL
[5]; LNP NPA-030-1, 10 ug
  G-CSF Protein Expression, Conc: ~1200 ng/mL
[5]; LNP NPA-030-1, 100 ug
  G-CSF Protein Expression, Conc: ~4700 ng/mL
[6]; 0.005 mg/kg, 2 days
  Aspartate Transaminase (AST): 34 U/L
  Alanine Transaminase (ALT): 39 U/L
[6]; 0.005 mg/kg, 4 days
  Aspartate Transaminase (AST): 36 U/L
  Alanine Transaminase (ALT): 48 U/L
[6]; 0.005 mg/kg, 7 days
  Aspartate Transaminase (AST): 31 U/L
  Alanine Transaminase (ALT): 29 U/L
[6]; 0.005 mg/kg, 14 days
  Aspartate Transaminase (AST): 20 U/L
  Alanine Transaminase (ALT): 44 U/L
[6]; 0.005 mg/kg, Pre-dose
  Aspartate Transaminase (AST): 54 U/L
  Alanine Transaminase (ALT): 43 U/L
[6]; 0.05 mg/kg, 1 days
  Aspartate Transaminase (AST): 34 U/L
[6]; 0.05 mg/kg, 4 days
  Aspartate Transaminase (AST): 42 U/L
  Alanine Transaminase (ALT): 88 U/L
[6]; 0.05 mg/kg, 7 days
  Aspartate Transaminase (AST): 52 U/L
  Alanine Transaminase (ALT): 73 U/L
[6]; 0.05 mg/kg, 14 days
  Aspartate Transaminase (AST): 20 U/L
  Alanine Transaminase (ALT): 50 U/L
[6]; 0.05 mg/kg, Pre-dose
  Aspartate Transaminase (AST): 33 U/L
  Alanine Transaminase (ALT): 58 U/L
[6]; 0.5 mg/kg, 2 days
  Aspartate Transaminase (AST): 794 U/L
  Alanine Transaminase (ALT): 63 U/L
[6]; 0.5 mg/kg, 4 days
  Aspartate Transaminase (AST): 63 U/L
  Alanine Transaminase (ALT): 70 U/L
[6]; 0.5 mg/kg, 7 days
  Aspartate Transaminase (AST): 68 U/L
  Alanine Transaminase (ALT): 41 U/L
[6]; 0.5 mg/kg, 14 days
  Aspartate Transaminase (AST): 67 U/L
  Alanine Transaminase (ALT): 43 U/L
[6]; 0.5 mg/kg, Pre-dose
  Aspartate Transaminase (AST): 47 U/L
  Alanine Transaminase (ALT): 29 U/L
[6]; 0.05 mg/kg, 2 days
  Alanine Transaminase (ALT): 82 U/L
